Assay results as given in patent US20260117202A1.

Tests used:
Experiment in all cases: sandwich ELISA, AM14 coated, supernatant 1:10
FHS-98 (RSV strain A2) = FHS-98 (RSV strain A2) (UniProt P03420)
FHS-4 (RSV strain A2) = FHS-4 (RSV strain A2) (UniProt P03420)
FHM-5 (RSV strain A2) = FHM-5 (RSV strain A2) (UniProt P03420)
FHS-58 (RSV strain A2) = FHS-58 (RSV strain A2) (UniProt P03420)
FHS-95 (RSV strain A2) = FHS-95 (RSV strain A2) (UniProt P03420)
FHS-22 (RSV strain A2) = FHS-22 (RSV strain A2) (UniProt P03420)
FHS-51 (RSV strain A2) = FHS-51 (RSV strain A2) (UniProt P03420)
FHS-49 (RSV strain A2) = FHS-49 (RSV strain A2) (UniProt P03420)
FHS-62 (RSV strain A2) = FHS-62 (RSV strain A2) (UniProt P03420)
FHS-86 (RSV strain A2) = FHS-86 (RSV strain A2) (UniProt P03420)
FHS-18 (RSV strain A2) = FHS-18 (RSV strain A2) (UniProt P03420)
FHS-13 (RSV strain A2) = FHS-13 (RSV strain A2) (UniProt P03420)
FHM-24 (RSV strain A2) = FHM-24 (RSV strain A2) (UniProt P03420)
FHS-16 (RSV strain A2) = FHS-16 (RSV strain A2) (UniProt P03420)
FHS-27 (RSV strain A2) = FHS-27 (RSV strain A2) (UniProt P03420)
FHS-52 (RSV strain A2) = FHS-52 (RSV strain A2) (UniProt P03420)
FHS-37 (RSV strain A2) = FHS-37 (RSV strain A2) (UniProt P03420)
FHM-20 (RSV strain A2) = FHM-20 (RSV strain A2) (UniProt P03420)
FHS-38 (RSV strain A2) = FHS-38 (RSV strain A2) (UniProt P03420)
FHM-18 (RSV strain A2) = FHM-18 (RSV strain A2) (UniProt P03420)
FHS-6 (RSV strain A2) = FHS-6 (RSV strain A2) (UniProt P03420)
FHS-90 (RSV strain A2) = FHS-90 (RSV strain A2) (UniProt P03420)
FHS-69 (RSV strain A2) = FHS-69 (RSV strain A2) (UniProt P03420)
FHS-5 (RSV strain A2) = FHS-5 (RSV strain A2) (UniProt P03420)
FHM-15 (RSV strain A2) = FHM-15 (RSV strain A2) (UniProt P03420)
FHS-34 (RSV strain A2) = FHS-34 (RSV strain A2) (UniProt P03420)
FHS-61 (RSV strain A2) = FHS-61 (RSV strain A2) (UniProt P03420)
FHS-14 (RSV strain A2) = FHS-14 (RSV strain A2) (UniProt P03420)
FHS-81 (RSV strain A2) = FHS-81 (RSV strain A2) (UniProt P03420)
FHS-32 (RSV strain A2) = FHS-32 (RSV strain A2) (UniProt P03420)
FHS-91 (RSV strain A2) = FHS-91 (RSV strain A2) (UniProt P03420)
FHS-80 (RSV strain A2) = FHS-80 (RSV strain A2) (UniProt P03420)
FHS-47 (RSV strain A2) = FHS-47 (RSV strain A2) (UniProt P03420)
FHS-73 (RSV strain A2) = FHS-73 (RSV strain A2) (UniProt P03420)
FHM-14 (RSV strain A2) = FHM-14 (RSV strain A2) (UniProt P03420)
FHS-55 (RSV strain A2) = FHS-55 (RSV strain A2) (UniProt P03420)
FHS-20 (RSV strain A2) = FHS-20 (RSV strain A2) (UniProt P03420)
FHM-17 (RSV strain A2) = FHM-17 (RSV strain A2) (UniProt P03420)
FHS-12 (RSV strain A2) = FHS-12 (RSV strain A2) (UniProt P03420)
FHS-33 (RSV strain A2) = FHS-33 (RSV strain A2) (UniProt P03420)
FHS-63 (RSV strain A2) = FHS-63 (RSV strain A2) (UniProt P03420)

Substance: AM14 monoclonal antibody
- OD value (FHS-98 (RSV strain A2)): 0.007 OD
- OD value (FHS-4 (RSV strain A2)): 2.26 OD
- OD value (FHM-5 (RSV strain A2)): 1.96 OD
- OD value (FHS-58 (RSV strain A2)): 0.011 OD
- OD value (FHS-95 (RSV strain A2)): 0.007 OD
- OD value (FHS-22 (RSV strain A2)): 0.01 OD
- OD value (FHS-51 (RSV strain A2)): 0.006 OD
- OD value (FHS-49 (RSV strain A2)): 1.96 OD
- OD value (FHS-62 (RSV strain A2)): 0.01 OD
- OD value (FHS-86 (RSV strain A2)): 0.062 OD
- OD value (FHS-18 (RSV strain A2)): 0.009 OD
- OD value (FHS-13 (RSV strain A2)): 0.013 OD
- OD value (FHM-24 (RSV strain A2)): 1.61 OD
- OD value (FHS-16 (RSV strain A2)): 0.009 OD
- OD value (FHS-27 (RSV strain A2)): 0.005 OD
- OD value (FHS-52 (RSV strain A2)): 0.007 OD
- OD value (FHS-37 (RSV strain A2)): 0.007 OD
- OD value (FHM-20 (RSV strain A2)): 0.607 OD
- OD value (FHS-38 (RSV strain A2)): 0.008 OD
- OD value (FHM-18 (RSV strain A2)): 1.8 OD
- OD value (FHS-6 (RSV strain A2)): 2.65 OD
- OD value (FHS-90 (RSV strain A2)): 0.007 OD
- OD value (FHS-69 (RSV strain A2)): 1.88 OD
- OD value (FHS-5 (RSV strain A2)): 2.24 OD
- OD value (FHM-15 (RSV strain A2)): 1.5 OD
- OD value (FHS-34 (RSV strain A2)): 0.007 OD
- OD value (FHS-61 (RSV strain A2)): 0.008 OD
- OD value (FHS-14 (RSV strain A2)): 2.61 OD
- OD value (FHS-81 (RSV strain A2)): 0.008 OD
- OD value (FHS-32 (RSV strain A2)): 0.008 OD
- OD value (FHS-91 (RSV strain A2)): 0.008 OD
- OD value (FHS-80 (RSV strain A2)): 0.005 OD
- OD value (FHS-47 (RSV strain A2)): 1.32 OD
- OD value (FHS-73 (RSV strain A2)): 0.016 OD
- OD value (FHM-14 (RSV strain A2)): 0.008 OD
- OD value (FHS-55 (RSV strain A2)): 0.009 OD
- OD value (FHS-20 (RSV strain A2)): 0.009 OD
- OD value (FHM-17 (RSV strain A2)): 0.006 OD
- OD value (FHS-12 (RSV strain A2)): 1.24 OD
- OD value (FHS-33 (RSV strain A2)): 0.005 OD
- OD value (FHS-63 (RSV strain A2)): 0.006 OD
